The source of these data is US20070049518A1, “Novel method of treatment of inflammatory skin conditions” (priority 2005, published 2007).

The test system of data set [1] is proenzyme of human rheumatoid synovial fibroblast collagenase (proMMP-1). It is filed as biochemical. The note with it: aureolysin alone±APMA. Here is the method: (§1) Collagenase activity in the samples was then determined by incubation at 25° C. in TCNB containing 0.1 μg/ml (pro)MMP-1 and 0.16 mg/ml porcine type I collagen (MD Biosciences).
Data set [2] concerns the target T1, proenzyme of human rheumatoid synovial fibroblast collagenase (proMMP-1) (Homo sapiens, UniProt P03956).
T1 construct: the proenzyme of human rheumatoid synovial fibroblast collagenase (Calbiochem); purchased Calbiochem; host or cells: human rheumatoid synovial fibroblasts (as the product's name says)
T1 sequence (P03956 20-469): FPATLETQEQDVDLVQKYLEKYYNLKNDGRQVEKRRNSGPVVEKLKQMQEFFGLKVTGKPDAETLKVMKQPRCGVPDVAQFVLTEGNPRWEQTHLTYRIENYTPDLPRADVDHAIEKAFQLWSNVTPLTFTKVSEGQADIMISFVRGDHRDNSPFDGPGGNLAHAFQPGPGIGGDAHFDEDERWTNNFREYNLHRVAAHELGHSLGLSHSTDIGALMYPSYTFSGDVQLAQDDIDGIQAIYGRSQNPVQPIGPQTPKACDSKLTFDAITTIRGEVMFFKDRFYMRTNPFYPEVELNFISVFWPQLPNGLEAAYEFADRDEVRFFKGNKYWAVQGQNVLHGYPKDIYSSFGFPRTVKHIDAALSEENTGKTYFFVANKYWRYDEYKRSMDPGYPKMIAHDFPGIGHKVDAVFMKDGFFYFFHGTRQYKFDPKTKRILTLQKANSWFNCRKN
It is filed as biochemical. The note with it: for α1-chain ¾ - length product: aureolysin 3 μg/ml and/or 1 mM APMA. Here is the method: as §1

In data set [3] the test system is Human skin epidermal keratinocytes. Kind of data set: Keratinocyte activation, IL-8 production. It is filed as cell-based. The note with it: 48 hours, aureolysin 50 μg/ml. From the text:
Activated keratinocytes produce IL-8, a proinflammatory chemokine. Many bacterial products cause the activation of keratinocytes. Aureolysin may be evaluated for its effects on IL-8 production by keratinocytes. Human skin epidermal keratinocytes (TCS Cellworks) are maintained as per instructions. Proliferating cultures are trypsinised, harvested, treated with a trypsin inhibitor and resuspended in growth medium at approximately 50,000 cells/well, to provide confluent monolayers in 96 well plates. Cells are incubated overnight at 37° C. at 5% CO2 to allow recovery, the spent medium aspirated from the wells and replaced with fresh growth medium. The cells are incubated at 37° C. at 5% CO2 for a further 24 or 48 hours with aureolysin or buffer control.
The supernatants are removed from each well and the concentration of IL-8 is determined using a human IL-8 ELISA development kit from R&D systems (Catalog Number: DY208) using the manufacturers instructions.
In these experiments, the cells are incubated at 37° C. at 5% CO2 for 48 hours with aureolysin or buffer control. Poly IC and lipoteichoic acid (LTA), which stimulate IL-8 production in keratinocytes were used as positive controls.

The test system of another data set is single chain pro-uPA. Kind of data set: Activation of pro-uPA by aureolysin. It is filed as biochemical. The note with it: Expt. 1, 2.5 h.

Where two headings read alike, the source gives them in different places.

As to “aureolysin: metalloprotease (EC 3.4.24.29) secreted by Staphylococcus aureus, single chain of 301 amino acids”, the “collagenase activity of control incubations without proMMP-1 (in words)” value in data set [1] is recorded as “no activity”. Moreover, the “α1-chain ¾ - length product” value is on record as 0 arbitrary units in data set [2] (Time 0 h); 1709 arbitrary units in data set [2] (Time 0.5 h); 3726 arbitrary units in data set [2] (Time 1 h); 5115 arbitrary units in data set [2] (Time 1.5 h); 8742 arbitrary units in data set [2] (Time 2 h); 12718 arbitrary units in data set [2] (Time 3 h). Besides, the “α1-chain ¾ - length product” value in data set [2] (Time 4 h) worked out at 16882 arbitrary units; in data set [2] (Time 5 h), 17558 arbitrary units; in data set [2] (Time 6 h) it was 19436 arbitrary units. For the same substance, the “Relative rate of collagen cleavage” value in data set [2] (relative to untreated control (MMP-1 alone = 1)) is given as 3. Besides, the “IL-8 ± SE” value in data set [3] came to 687 pg/mL; in data set [3] (listed as Aureolysin), 687 ± 0.7 pg/mL. For the same substance, the “Urokinase activity after pro-uPA activation” value worked out at 2.31 A405/0.5 h/μg in the data set with single chain pro-uPA (aureolysin 0.1 μg/ml, MES pH 5.6); 0.65 A405/0.5 h/μg in the data set with single chain pro-uPA (aureolysin 0.1 μg/ml, Tris-HCl pH 7.5); 3.76 A405/0.5 h/μg in the data set with single chain pro-uPA (aureolysin 0.3 μg/ml, MES pH 5.6); 1.43 A405/0.5 h/μg with single chain pro-uPA (aureolysin 0.3 μg/ml, Tris-HCl pH 7.5); 4.68 A405/0.5 h/μg in the data set on single chain pro-uPA (aureolysin 1 μg/ml, MES pH 5.6); 3.29 A405/0.5 h/μg in the data set with single chain pro-uPA (aureolysin 1 μg/ml, Tris-HCl pH 7.5).
